Source: patent publication US20210139581A1 (Alector, published 2021)
Where a chain is given by its changes, count along the chain named.

B1: AB-H14 (antibody, V domains shown)
VH: QVQLVQSGAEVKKPGASVKVSCKASGYTFTDYNLHWVRQAPGQGLEWIGFIYPSNGITGYAQKFQGRVTMTVDTSTSTVYMELSSLRSEDTAVYYCARSTVDYFDYWGQGTLVTVSS
VL: DIQMTQSPSSLSASVGDRVTITCRASQSVSTSTYSYMHWYQQKPGKAPKLLIKYASNLESGVPSRFSGSGSGTDFTLTISSLQPEDFATYYCQHSWEIPLTFGQGTKLEIK
notes: Humanized variant of murine 2F5.1
B2: AB-H63 (antibody, V domains shown)
VH: B1 VH
VL: DIVLTQSPDSLAVSLGERATINCRASQSVSTSTYSYMHWYQQKPGQPPKLLIKYASNLESGVPDRFSGSGSGTDFTLTISSLQAEDVAVYYCQHSWEIPLTFGQGTKLEIK
notes: as for B1
B3: AB-64.7 (antibody, V domains shown)
VH: B1 VH with V20I, L34Y, V68A, M70L, T74N, V79A, T100D, V113L
VL: B2 VL with S30G, E59N, W96E
B4: AB-64.2 (antibody, V domains shown)
VH: B1 VH with V20I, V68A, M70L, T74N, V79A, V113L
VL: B2 VL with A25V, S28D
B5: AB-64.6 (antibody, V domains shown)
VH: B1 VH with V20I, L34Y, V68A, M70L, T74N, V79A, T100D, V113L
VL: B2 VL with S28D, N57F
B6: AB-H64 (antibody, V domains shown)
VH: B1 VH with V20I, V68A, M70L, T74N, V79A, V113L
VL: B2 VL
notes: Humanized variant of murine 2F5.1; also called parental humanized antibody
B7: Chimeric Ab (antibody, V domains shown)
VH: EVQLQQSGPELVKPGASVKISCKASGYTFTDYNLHWVKLSHGKSLEWIGFIYPSNGITGYNQKFKNKATLTVDNSSSTAYMELRSLTSEDSAVYYCARSTVDYFDYWGQGTTLTVSS
VL: DIVLTQSPASLAVSLGQRATMSCRASQSVSTSTYSYMHWYQQKPGQPPKLLIKYASNLESGVPARFSGSGSGTDFTLNIHPVEEEDTATYYCQHSWEIPLTFGAGTKLELK
notes: Chimeric antibody with the variable regions of murine 2F5.1; also called parental antibody; comparator antibody
B8: AB-H9 (antibody, V domains shown)
VH: B1 VH with V11L, G44R, A61S, R67K, V68A, M70L, T76A, V79A, L112T
VL: B1 VL with K53Y
notes: as for B1
B9: AB-H15 (antibody, V domains shown)
VH: B1 VH with V20I, V68A, M70L, V79A, V113L
VL: B1 VL
notes: as for B1
B10: AB-H65 (antibody, V domains shown)
VH: B1 VH with I48M, V72R, L112T
VL: B2 VL
notes: as for B1
B11: AB-H2 (antibody, V domains shown)
VH: B1 VH
VL: B1 VL with K53Y
notes: as for B1
B12: AB-H66 (antibody, V domains shown)
VH: B1 VH with V20I, V68A, M70L, V79A, L112T
VL: B2 VL
notes: as for B1

target: T1, human CD33 (human, UniProt P20138 18-259, limits assumed); test: BLI (ForteBio), Fab 100 nM on immobilized CD33
T1 construct: Human CD33 immobilized on the BLI sensor tip or the BIAcore C1 chip; also called Siglec-3
Procedure: (§1) The affinities (KD) of the humanized antibodies for human CD33 were measured for each antibody by BioLayer Interferometry in a ForteBio assay according to standard techniques (Estep et al. (2013) MAbs 5(2): 270-8). […] The assay was carried out at room temperature.
The affinities of AB-H14 and its affinity-matured variants (Table 15) and AB-H63 and its affinity-matured variants (Table 16), for human CD33 were measured by Fortebio assay according to the method described in Example 1 above.

T1 sequence (P20138 18-259 limits assumed): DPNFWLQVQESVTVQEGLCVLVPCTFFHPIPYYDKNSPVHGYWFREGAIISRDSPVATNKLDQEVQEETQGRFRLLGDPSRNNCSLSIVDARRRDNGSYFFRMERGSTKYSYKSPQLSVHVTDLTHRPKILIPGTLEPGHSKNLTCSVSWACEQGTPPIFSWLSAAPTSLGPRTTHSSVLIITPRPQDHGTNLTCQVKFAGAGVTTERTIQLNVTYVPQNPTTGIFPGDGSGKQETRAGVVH

Row | Kd [nM] | koff [s⁻¹] | kon [M⁻¹ s⁻¹] | Binder
1 | 2.91 | 0.00115 | 397000 | B1
2 | 2.72 | 0.00168 | 615000 | B2

target: T2, human CD33 on primary human monocyte-derived dendritic cells (human, UniProt P20138 18-364); test: cell-based or functional assay
T2 sequence (P20138 18-364): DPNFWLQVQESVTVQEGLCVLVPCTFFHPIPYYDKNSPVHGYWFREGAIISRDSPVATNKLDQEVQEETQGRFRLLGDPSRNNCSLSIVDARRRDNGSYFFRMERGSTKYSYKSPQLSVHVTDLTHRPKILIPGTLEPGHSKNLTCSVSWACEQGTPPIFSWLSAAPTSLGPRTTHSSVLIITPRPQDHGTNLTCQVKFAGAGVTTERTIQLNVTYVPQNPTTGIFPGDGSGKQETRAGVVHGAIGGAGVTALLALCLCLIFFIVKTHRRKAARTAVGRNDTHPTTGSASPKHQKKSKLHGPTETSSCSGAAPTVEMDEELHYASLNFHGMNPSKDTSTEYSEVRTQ

Row | Receptor downregulation (EC50) [nM] | Binder
3 | 0.0306 | B3
4 | 0.0311 | B4
5 | 0.034 | B5
6 | 0.0366 | B6

target: T2, human CD33 on primary human …; test: cell-based or functional assay; remark: another data set of the same source

Row | Maximal Downregulation (% CD33 remaining) [%] | Receptor downregulation (EC50) [nM] | Binder
7 | 16.1 | 0.0726 | B2

target: T2, human CD33 on primary human …; test: cell-based or functional assay; remark: another data set of the same source

Row | Maximal Downregulation (% CD33 remaining) [%] | Receptor downregulation (EC50) [nM] | Binder
8 | 24.1 | 0.0869 | B7
9 | 31.2 | 0.017 | B3
10 | 26.8 | 0.0166 | B4
11 | 30.6 | 0.0113 | B5
12 | 22.4 | 0.029 | B6

target: T1, human CD33; test: SPR (BIAcore), Fab over CD33 on C1 chip
Procedure: (§2) The affinity parameters for 10 of the 88 humanized antibodies (AB-H1, AB-H3, AB-H6, AB-H11, AB-H22, AB-H24, AB-H26, AB-H63, AB-H64, and AB-H71) were measured in a separate experiment by a more sensitive technique, surface plasmon resonance (BIAcore), and compared to Chimeric Ab and Chimeric Ab #2. BIAcore measurements were performed as follows: human CD33 was immobilized on the surface of a C1 chip, and Fabs were injected for 300 s to monitor association, followed by a 900 s flow in running buffer to monitor dissociation. The Fabs were measured at 5 concentrations: a high concentration of 27 nM and 3-fold serial dilutions.
In a separate experiment, as determined by the more sensitive BIAcore technique, affinity parameters of affinity matured antibodies derived from the humanized antibody AB-H64 were measured and were directly compared to that of the Chimeric Ab, according to the method described in Example 1 above.

Row | Kd [nM] | koff [s⁻¹] | kon [M⁻¹ s⁻¹] | Fold Change to AB-H64 [fold] | Fold Change to Chimeric Ab [fold] | Binder
13 | 1.63 | 0.00162 | 995000 |  |  | B7
14 | 0.00997 | 8.75e-05 | 8.78e+06 | 216 | 163 | B3
15 | 0.0458 | 0.000137 | 3e+06 | 46.9 | 35.5 | B4
16 | 0.0063 | 3.95e-05 | 6.26e+06 | 341 | 258 | B5
17 | 2.15 | 0.00221 | 1.03e+06 |  | 0.76 | B6

target: T2, human CD33 on primary human …; test: cell-based or functional assay; remark: another data set of the same source

Row | Maximal Downregulation (% CD33 remaining) [%] | Receptor downregulation (EC50) [nM] | Binder
18 | 15 | 0.151 | B1

target: T1, human CD33; test: SPR (BIAcore), Fab over CD33 on C1 chip; remark: another data set of the same source
Procedure: as §2

Row | Kd [nM] | koff [s⁻¹] | kon [M⁻¹ s⁻¹] | Fold Change to Chimeric Ab [fold] | Binder
19 | 1.63 | 0.00162 | 995000 |  | B7
20 | 3.53 | 0.00263 | 744000 | 0.46 | B2
21 | 2.15 | 0.00221 | 1.03e+06 | 0.76 | B6

target: T1, human CD33; test: BLI (ForteBio), Fab 100 nM on immobilized CD33; remark: another data set of the same source
Procedure: as §1
The affinities of AB-H64 and its variants (Table 5) for human CD33 were measured by Fortebio assay according to the method described in Example 1 above.

Row | Fold affinity improvement over parental Ab (AB-H64) [fold] | Kd [nM] | Binder
22 | 11.9 | 0.24 | B3
23 | 3.64 | 0.786 | B4
24 | 8.52 | 0.336 | B5
25 |  | 2.86 | B6

target: T2, human CD33 on primary human …; test: cell-based or functional assay; remark: another data set of the same source

Row | Maximal Downregulation (% CD33 remaining) [%] | Receptor downregulation (EC50) [nM] | Binder
26 | 24.1 | 0.0869 | B7
27 | 20.3 | 0.032 | B2
28 | 22.4 | 0.029 | B6

target: T2, human CD33 on primary human …; test: cell-based or functional assay; remark: another data set of the same source

Row | Receptor downregulation (EC50) [nM] | Binder
29 | 0.0743 | B7
30 | 0.042 | B1
31 | 0.0234 | B8
32 | 0.0586 | B9
33 | 0.0481 | B10
34 | 0.0517 | B11
35 | 0.0393 | B12
36 | 0.0041 | B2
37 | 0.0137 | B6

target: T1, human CD33; test: BLI (ForteBio), Fab 100 nM on immobilized CD33; remark: another data set of the same source
Procedure: as §1

Row | Kd [nM] | Binder
38 | 5.22 | B7
39 | 3.42 | B1
40 | 3.5 | B8
41 | 5.45 | B9
42 | 8.57 | B10
43 | 3.24 | B11
44 | 5.54 | B12
45 | 4.07 | B2
46 | 4.08 | B6
